Values of other authors in paper PMC6023760.

Target: Thrombin exosite 2 (Homo sapiens) (UniProt P00734)

Kd: 200 nM
Substance: Fibrin γ′-chain γ′ site (from UniProt P02679)
